Test results from patent US20040063641A1, “Use of growth hormone or a growth hormone secretagogue for promoting bone formation” (priority 1996, published 2004).

B1: GH: recombinant porcine growth hormone (r-pGH), homologous GH given by daily injection to mini-pigs (protein, UniProt P01248 27-216, looked up)
Somatotropin: FPAMPLSSLFANAVLRAQHLHQLAADTYKEFERAYIPEGQRYSIQNAQAAFCFSETIPAPTGKDEAQQRSDVELLRFSLLLIQSWLGPVQFLSRVFTNSLVFGTSDRVYEKLKDLEEGIQALMRELEDGSPRAGQILKQTYDKFDTNLRSDDALLKNYGLLSCFKKDLHKAETYLRVMKCRRFVESSCAF
B2: cST: canine somatotropin, given to dogs in the cited study of Buonomo et al. (protein, UniProt P33711 27-216, looked up)
Somatotropin: B1 Somatotropin

Key:
[1] = test system: distracted tibia (bone regenerate); test: Mechanical torsion testing of distracted tibia after callus distraction in mini-pigs; format: in vivo, Yucatan mini-pigs; settings: r-pGH 100 μg/kg daily injection
Experimental: After sacrifice, the right and left limb were dissected. The soft tissue around the joints was removed, and the ends of the tibia were casted in Beracryl. The constructs were placed in a materials testing machine (Zwick, Ulm, Germany), and torsional moments were applied. Resulting displacements and torsional moments were recorded. The test was conducted with a speed of 30° per minute until failure. The system automatically terminated the test at a torque of […]. The final bone torsional strength of a mini-pig group treated with growth hormone was investigated relative to a control group. 30 mature female Yucatan mini-pigs were equally distributed into two treatment groups. Mini-pigs in the study group received a daily injection of recombinant porcine growth hormone (r-pGH: 100 μg/kg), the mini-pigs in the control group received sodium chloride as placebo. The left tibiae and fibulae were osteotomized and stabilized with an external fixator. Full weight bearing was permitted. The legs were distracted twice daily at 2 mm/day for 10 days and then allowed to consolidate for 10 days. After sacrifice, torsional moments were applied to the distracted and the contralateral tibia in a material testing machine and the maximum torsional moment was determined. Four animals were removed from the study due to bone infection or surgery failure and data of 2 animals were lost due to test machine failure. A t-test was used to determine differences in maximum torsional moments between the treatment groups.

[2] = test system: healing fracture; settings: dogs treated with cST; no distraction; cited from earlier work

Row | Molecule | maximum torsional moment in comparison to the intact contralateral tibia ([1]; at sacrifice, p<0.001 vs control) [%] | maximum torsional moment ([1]; distracted tibia at sacrifice, mean±SD, p=0.001 vs placebo) [Nm] | maximum torsional moment, higher than that of the placebo group ([1]; distraction 2 mm/day for 10 days, consolidation 10 days, at sacrifice, p=0.001) [%] | increase of stiffness of the healing fracture as compared to non-treated dogs [2] [fold] | increase of strength of the healing fracture as compared to non-treated dogs [2] [fold]
1 | B1 | 64±22.4 | 19.5±7.8 | 131 | – | –
2 | B2 | – | – | – | 5 | 3
